Test results from publication PMC10638775.

Target: FGFR1 on NIH3T3 cells (mouse (NIH3T3 fibroblasts)) (UniProt P16092)
Assay: flow cytometry
Conditions: SPR: Biacore T200, CM5 amine coupling, HBS running buffer (pH, salt, temperature not stated), flow cytometry: PBS, 1% BSA, 0.1% sodium azide, room temperature

FGFR1 on NIH3T3 cells (mouse (NIH3T3 fibroblasts)), sequence (P16092 22-822): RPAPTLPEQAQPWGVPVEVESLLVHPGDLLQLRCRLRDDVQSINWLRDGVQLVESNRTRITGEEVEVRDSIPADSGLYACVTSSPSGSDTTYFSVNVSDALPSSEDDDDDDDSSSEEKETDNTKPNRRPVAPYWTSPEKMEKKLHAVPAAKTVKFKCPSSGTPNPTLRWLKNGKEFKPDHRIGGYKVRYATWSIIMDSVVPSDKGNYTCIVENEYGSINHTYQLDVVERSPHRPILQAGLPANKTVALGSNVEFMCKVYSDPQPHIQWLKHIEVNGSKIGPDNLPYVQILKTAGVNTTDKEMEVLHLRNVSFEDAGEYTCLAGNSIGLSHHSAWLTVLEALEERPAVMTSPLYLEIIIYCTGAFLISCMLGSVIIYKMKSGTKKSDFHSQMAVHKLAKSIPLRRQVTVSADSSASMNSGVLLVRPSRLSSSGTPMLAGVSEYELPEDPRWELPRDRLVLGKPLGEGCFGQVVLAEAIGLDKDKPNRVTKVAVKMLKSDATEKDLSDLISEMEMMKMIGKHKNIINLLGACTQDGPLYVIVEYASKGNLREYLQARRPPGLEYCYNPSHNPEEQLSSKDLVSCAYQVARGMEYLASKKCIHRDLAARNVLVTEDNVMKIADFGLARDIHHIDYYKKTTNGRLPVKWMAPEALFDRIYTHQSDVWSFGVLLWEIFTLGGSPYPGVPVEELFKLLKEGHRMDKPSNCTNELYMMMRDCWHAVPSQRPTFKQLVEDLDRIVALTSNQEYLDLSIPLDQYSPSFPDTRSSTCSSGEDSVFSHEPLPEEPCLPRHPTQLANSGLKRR

“GCCGCGTCTTTATGGCTGGGGATGGTGTGGGTTGCGGC [FAM-FGFR-binder]” showed a Kd of 39 nM.
